Test results: patent US20250154231A1
Like-named read-outs stand apart in the source and are kept apart here.

Columns and labels:
Assay in all cases: cell-based or functional assay
[1] = target: SARS-CoV-2 spike (S) protein, Omicron BA.3 (SARS-CoV-2) (UniProt P0DTC2)
[2] = target: SARS-CoV-2 spike (S) protein, Victoria strain (SARS-CoV-2) (UniProt P0DTC2)
[3] = target: SARS-CoV-2 spike (S) protein, Omicron BA.4.6 (SARS-CoV-2) (UniProt P0DTC2)
[4] = target: SARS-CoV-2 Alpha spike (S) protein (SARS-CoV-2) (UniProt P0DTC2)
[5] = target: SARS-CoV-2 spike (S) protein, Omicron BA.1.1 (SARS-CoV-2) (UniProt P0DTC2)
[6] = target: SARS-CoV-2 spike (S) protein, Omicron BA.2 (SARS-CoV-2) (UniProt P0DTC2)
[7] = target: SARS-CoV-2 spike (S) protein, Omicron BA.1 (SARS-CoV-2) (UniProt P0DTC2)
[8] = target: SARS-CoV-2 Delta spike (S) protein (SARS-CoV-2) (UniProt P0DTC2)
[9] = target: SARS-CoV-2 spike (S) protein, Omicron BA.4/5 (SARS-CoV-2) (UniProt P0DTC2)
[10] = target: SARS-CoV-2 Omicron BA.2 spike (S) protein (SARS-CoV-2) (UniProt P0DTC2)
[11] = target: SARS-CoV-2 Gamma spike (S) protein (SARS-CoV-2) (UniProt P0DTC2)
[12] = target: SARS-CoV-2 Omicron BA.1.1 spike (S) protein (SARS-CoV-2) (UniProt P0DTC2)
[13] = target: SARS-CoV-2 Omicron BA.1 spike (S) protein of the live isolate (SARS-CoV-2) (UniProt P0DTC2)
[14] = target: SARS-CoV-2 Victoria spike (S) protein (SARS-CoV-2) (UniProt P0DTC2)
[15] = target: SARS-CoV-2 Beta spike (S) protein (SARS-CoV-2) (UniProt P0DTC2)
[16] = target: SARS-CoV-2 spike (S) protein, Omicron BA.2.75 (SARS-CoV-2) (UniProt P0DTC2)
[17] = target: SARS-CoV-2 spike (S) protein, Omicron BA.4.6 (SARS-CoV-2) (UniProt P0DTC2); remark: listed apart in the source
[18] = target: SARS-CoV-2 spike (S) protein, Omicron BA.2.75.2 (SARS-CoV-2) (UniProt P0DTC2)
[19] = target: SARS-CoV-2 spike (S) protein, Omicron BA.2 (SARS-CoV-2) (UniProt P0DTC2); remark: listed apart in the source
[20] = target: SARS-CoV-2 spike (S) protein, Omicron BA.4/5 (SARS-CoV-2) (UniProt P0DTC2); remark: listed apart in the source
[21] = target: SARS-CoV-2 spike (S) protein, Omicron BA.2.3.20 (SARS-CoV-2) (UniProt P0DTC2)
[22] = target: SARS-CoV-2 spike (S) protein, Omicron BJ.1 (SARS-CoV-2) (UniProt P0DTC2)
[23] = target: SARS-CoV-2 spike (S) protein, Omicron BA.2.75 (SARS-CoV-2) (UniProt P0DTC2); remark: listed apart in the source
[24] = target: SARS-CoV-2 spike (S) protein, Victoria strain (SARS-CoV-2) (UniProt P0DTC2); remark: listed apart in the source

Substance	IC50, pseudoviral neutralization [1] [µg/mL]	pseudovirus neutralisation IC50 [1] [µg/mL]	IC50, pseudoviral neutralization [2] [µg/mL]	pseudovirus neutralisation IC50 [2] [µg/mL]	IC50, pseudoviral neutralization [3] [µg/mL]	IC50, pseudoviral neutralization [5] [µg/mL]	pseudovirus neutralisation IC50 [5] [µg/mL]	IC50, pseudoviral neutralization [6] [µg/mL]	pseudovirus neutralisation IC50 [6] [µg/mL]	IC50, pseudoviral neutralization [7] [µg/mL]	pseudovirus neutralisation IC50 [7] [µg/mL]	IC50, pseudoviral neutralization [9] [µg/mL]	pseudovirus neutralisation IC50 [9] [µg/mL]	IC50, pseudoviral neutralization [16] [µg/mL]	IC50, pseudoviral neutralization [17] [µg/mL]	IC50, pseudoviral neutralization [18] [µg/mL]	IC50, pseudoviral neutralization [19] [µg/mL]	IC50, pseudoviral neutralization [20] [µg/mL]	IC50, pseudoviral neutralization [21] [µg/mL]	IC50, pseudoviral neutralization [22] [µg/mL]	further results
ADG20 (antibody)	> 10	> 10	0.003	0.003	> 10	0.253	0.253	> 10	> 10	0.348	0.348	> 10	> 10	> 10	> 10	> 10	> 10	> 10	> 10	> 10	IC50, authentic virus neutralization [4]: 0.006 µg/mL; IC50, authentic virus neutralization [8]: 0.006 µg/mL; IC50, authentic virus neutralization [10]: > 10 µg/mL; IC50, authentic virus neutralization [11]: 0.009 µg/mL; IC50, authentic virus neutralization [12]: 1.27 µg/mL; IC50, authentic virus neutralization [13]: 1.1 µg/mL; IC50, authentic virus neutralization [14]: 0.004 µg/mL; IC50, authentic virus neutralization [15]: 0.01 µg/mL; pseudovirus neutralisation IC50 [23]: > 10 µg/mL
AZD1061 (antibody)	0.019	0.019	0.002	0.002	> 10	> 10	> 10	0.008	0.008	0.308	0.308	0.015	0.015	0.021	> 10	> 10	0.008	0.015	> 10	> 10	IC50, authentic virus neutralization [4]: 0.012 µg/mL; IC50, authentic virus neutralization [8]: 0.038 µg/mL; IC50, authentic virus neutralization [10]: 0.028 µg/mL; IC50, authentic virus neutralization [11]: 0.007 µg/mL; IC50, authentic virus neutralization [12]: > 10 µg/mL; IC50, authentic virus neutralization [13]: 3.49 µg/mL; IC50, authentic virus neutralization [14]: 0.013 µg/mL; IC50, authentic virus neutralization [15]: 0.014 µg/mL; IC50, pseudoviral neutralization [24]: 0.002 µg/mL; pseudovirus neutralisation IC50 [23]: 0.021 µg/mL
Ly-CoV555 (antibody)	> 10	> 10	0.002	0.002	> 10	> 10	> 10	> 10	> 10	> 10	> 10	> 10	> 10	> 10	> 10	> 10	> 10	> 10	> 10	> 10	IC50, pseudoviral neutralization [24]: 0.002 µg/mL; pseudovirus neutralisation IC50 [23]: > 10 µg/mL
REGN10933 (antibody)	> 10	> 10	0.001	0.001	> 10	> 10	> 10	> 10	> 10	> 10	> 10	> 10	> 10	> 10	> 10	> 10	> 10	> 10	8.62	> 10	IC50, authentic virus neutralization [4]: 0.014 µg/mL; IC50, authentic virus neutralization [8]: 0.003 µg/mL; IC50, authentic virus neutralization [10]: > 10 µg/mL; IC50, authentic virus neutralization [11]: 6.18 µg/mL; IC50, authentic virus neutralization [12]: > 10 µg/mL; IC50, authentic virus neutralization [13]: > 10 µg/mL; IC50, authentic virus neutralization [14]: 0.004 µg/mL; IC50, authentic virus neutralization [15]: 3.28 µg/mL; IC50, pseudoviral neutralization [24]: 0.001 µg/mL; pseudovirus neutralisation IC50 [23]: > 10 µg/mL
REGN10987 (antibody)	> 10	> 10	0.002	0.002	> 10	> 10	> 10	0.616	0.616	> 10	> 10	> 10	> 10	> 10	> 10	> 10	0.615	> 10	> 10	> 10	IC50, authentic virus neutralization [4]: 0.028 µg/mL; IC50, authentic virus neutralization [8]: 0.017 µg/mL; IC50, authentic virus neutralization [10]: 1.85 µg/mL; IC50, authentic virus neutralization [11]: 0.013 µg/mL; IC50, authentic virus neutralization [12]: > 10 µg/mL; IC50, authentic virus neutralization [13]: > 10 µg/mL; IC50, authentic virus neutralization [14]: 0.032 µg/mL; IC50, authentic virus neutralization [15]: 0.007 µg/mL; IC50, pseudoviral neutralization [24]: 0.002 µg/mL; pseudovirus neutralisation IC50 [23]: > 10 µg/mL
